From patent US20230203146A1 (Boehringer Ingelheim, published 2023)
Substitutions are numbered along the chain they refer to. Like-named read-outs stand apart in the source and are kept apart here.

Legend:
[1] = target: T1, N-terminally FLAG-tagged mouse Ang2 (HEK293T conditioned medium) (mouse, UniProt O35608 19-496); test: competition ELISA, periplasmic extract, FLAG-mAng2 on mTie2/Fc
T1 construct: may be a nucleotide entry; also called mAng2; FLAG-mAng2
T1 sequence: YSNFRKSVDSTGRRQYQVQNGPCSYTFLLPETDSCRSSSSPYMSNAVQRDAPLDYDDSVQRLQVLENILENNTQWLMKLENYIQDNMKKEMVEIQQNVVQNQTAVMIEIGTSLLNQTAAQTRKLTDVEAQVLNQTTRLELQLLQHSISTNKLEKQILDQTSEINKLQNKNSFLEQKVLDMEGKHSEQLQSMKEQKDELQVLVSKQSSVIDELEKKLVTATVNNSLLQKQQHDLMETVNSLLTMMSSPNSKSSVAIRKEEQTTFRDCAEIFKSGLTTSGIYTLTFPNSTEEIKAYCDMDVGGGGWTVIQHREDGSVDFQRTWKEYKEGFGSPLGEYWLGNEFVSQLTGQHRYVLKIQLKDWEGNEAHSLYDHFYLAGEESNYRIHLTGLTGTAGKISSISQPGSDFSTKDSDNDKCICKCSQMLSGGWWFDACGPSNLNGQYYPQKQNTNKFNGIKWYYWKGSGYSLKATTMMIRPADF
Description: In brief, human Tie2/Fc chimera (R&D Systems, Minneapolis, Minn., USA) is biotinylated using N-hydroxysulfosuccinimide ester of biotin (Thermo Fisher Scientific, Rockford, Ill., USA). […] To this mixture, the Acceptor beads and 0.3 nM biotinylated human Tie2/Fc chimeras are added and further incubated for 2 hours at room temperature. Finally, streptavidin conjugated Donor beads (Perkin Elmer, Waltham, Mass., US) are added and the mixture is incubated for an additional 2 hours at room temperature. Assay buffer is PBS+0.03% Tween-20+0.1% BSA. Fluorescence is measured using the Envision Multilabel Plate reader (Perkin Elmer, Waltham, Mass., USA) using an excitation wavelength of 680 nm and an emission wavelength of 520 nm. […] In brief, human or mouse Tie2/Fc chimera (R&D Systems, Minneapolis, Minn., USA) are immobilized at 2 μg/mL overnight at 4° C. in a 96-well MaxiSorp plate (Nunc, Wiesbaden, Germany). Wells are blocked with a 1% casein solution. […] This mixture is added to the Tie2/Fc coated well and incubated for 2 hours at room temperature. Residual binding of Ang is detected using HRP-conjugated anti-FLAG M2 antibody (Sigma, St Louis, Mo., USA).

[2] = target: T1, N-terminally FLAG-tagged mouse Ang2 …; test: competition ELISA, FLAG-mAng2 on coated mTie2-Fc
Description: (§1) In brief, 2 μg/mL of recombinant mouse Tie2-Fc or cyno Tie2-Fc is coated overnight at 4° C. in a 96-well MaxiSorp plate (Nunc, Wiesbaden, Germany). Coated wells are blocked with a 1% casein solution.

[3] = target: T2, N-terminally FLAG-tagged cynomolgus Ang2 (HEK293T conditioned medium) (cynomolgus, UniProt O15123 19-496 (human entry), limits assumed); test: competition ELISA, FLAG-cAng2 on coated cTie2-Fc
T2 construct: may be a nucleotide entry; also called cAng2; FLAG-cAng2
T2 chain: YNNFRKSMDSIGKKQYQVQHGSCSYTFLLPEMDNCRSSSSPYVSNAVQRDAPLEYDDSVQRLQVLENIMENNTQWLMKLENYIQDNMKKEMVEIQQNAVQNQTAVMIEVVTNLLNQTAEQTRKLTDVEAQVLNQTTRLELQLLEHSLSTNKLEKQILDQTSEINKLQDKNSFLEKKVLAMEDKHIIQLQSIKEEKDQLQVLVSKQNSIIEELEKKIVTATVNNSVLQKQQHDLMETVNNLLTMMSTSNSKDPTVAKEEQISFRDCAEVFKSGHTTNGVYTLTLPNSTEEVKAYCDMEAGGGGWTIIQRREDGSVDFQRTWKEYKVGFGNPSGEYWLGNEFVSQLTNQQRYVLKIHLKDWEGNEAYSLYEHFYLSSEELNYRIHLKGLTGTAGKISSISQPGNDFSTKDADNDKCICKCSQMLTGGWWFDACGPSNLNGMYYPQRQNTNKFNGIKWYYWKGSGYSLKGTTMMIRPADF
Description: as §1

[4] = target: T1, N-terminally FLAG-tagged mouse Ang2 …; test: competition ELISA, FLAG-mAng2 on coated mTie2-Fc; remark: listed apart in the source
Description: as §1

[5] = target: T3, recombinant cynomolgus Ang2-FLD (cynomolgus); test: SPR (Biacore T100), binder on CM5 chip, Ang2-FLD as analyte
T3 construct: domain: FLD; also called cyno Ang2-FLD
Description: (§2) In brief, VHH and benchmark compounds are immobilized on a CM5 chip via amine coupling. […] Ang2-FLD species are allowed to associate for 2 min and to dissociate for 20 min at a flow rate of 45 μL/min. In between injections, the surfaces are regenerated with a 10 sec pulse of 25 mM NaOH and 60 sec stabilization period. Association/dissociation data are evaluated by fitting a 1:1 interaction model (Langmuir binding). The affinity constant KD is calculated from resulting association and dissociation rate constants kₐ and kd and are depicted in Table 8.

[6] = target: T4, recombinant human Ang2-FLD (human, UniProt O15123 275-496, limits assumed); test: as above
T4 construct: domain: FLD; not used
T4 sequence (looked up): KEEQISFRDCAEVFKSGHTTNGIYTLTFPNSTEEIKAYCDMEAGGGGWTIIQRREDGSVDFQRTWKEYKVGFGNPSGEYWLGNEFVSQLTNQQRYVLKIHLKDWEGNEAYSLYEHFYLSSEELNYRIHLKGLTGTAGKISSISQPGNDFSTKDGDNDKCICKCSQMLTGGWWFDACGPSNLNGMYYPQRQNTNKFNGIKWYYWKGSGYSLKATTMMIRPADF
Description: as §2

[7] = target: T5, recombinant mouse Ang2-FLD (mouse, UniProt O35608 275-496, limits assumed); test: as above
T5 construct: domain: FLD
T5 sequence (looked up): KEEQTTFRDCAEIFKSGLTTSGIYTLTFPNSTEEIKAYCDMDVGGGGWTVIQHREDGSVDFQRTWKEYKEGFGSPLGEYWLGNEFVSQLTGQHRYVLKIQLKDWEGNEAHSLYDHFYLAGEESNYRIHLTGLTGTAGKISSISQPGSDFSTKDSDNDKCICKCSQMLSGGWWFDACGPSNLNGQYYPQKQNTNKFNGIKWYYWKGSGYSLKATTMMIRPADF
Description: as §2

[8] = target: T6, FLAG-tagged cynomolgus Ang2 (cynomolgus, UniProt O15123 19-496 (human entry), limits assumed); test: competition ELISA: FLAG-cAng2 binding to coated cTie2-Fc
T6 construct: N-terminally FLAG-tagged, conditioned medium of HEK293T cells; also called cAng2; FLAG-cAng2
T6 chain: T2 chain
Description: as §1

[9] = target: T6, FLAG-tagged cynomolgus Ang2; test: as above
Description: as §1

FLAG-tagged mouse Ang2 = target: T7, FLAG-tagged mouse Ang2 (mouse, UniProt O35608 19-496); test: competition ELISA: FLAG-mAng2 binding to coated mTie2-Fc
T7 construct: N-terminally FLAG-tagged, conditioned medium of HEK293T cells; also called mAng2; FLAG-mAng2
T7 sequence: T1 sequence
Description: as §1

B1: VHH 15H04 (VHH)
VHH: EVQLVESGGGLVQAGGSLGLSCAASERTLPSYVMGWFRQAPGKELEFVAGISWSSGRTYYTDSVKGRFTISRDAAENTWYLQMNSLKPEDTAVYYCASNSVSEPTLHTWQYEASYDYWGQGTQVTVSS
notes: also called 015H04; not shown: C-terminal c-myc tag and His6 tag
% inh [1]: 38% | IC50 [2]: 125 nM

B2: VHH 22C07 (VHH)
VHH: EVQLVESGGGLVQAGGSLRLSCAASGFTFDDYAIGWFRQAPGKEREGVSCISSSDGSTYYADSVKGRFTISSDNAKNTVYLQMNSLKPEDTAVYYCAADFIISSKRLCLDLFGSRGQGTQVTVSS
notes: also called 022C07; not shown: C-terminal c-myc tag and His6 tag
% inh [1]: 82% | IC50 [2]: 13.6 nM

B3: VHH 11B07 (VHH)
VHH: EVQLVESGGGLVQVGDSLRLSCAASGRTFSTYLMVGWFRQAPGKEREFAAGIWSSGDTAYADSVRGRFTISRDNAKNTVYLQMNSLKTEDTAVYYCAGSYDGNYYIPGFYKDWGQGTQVTVSS
notes: also called 011B07; not shown: C-terminal c-myc tag and His6 tag
IC50 [3]: 24.8 nM | IC50 [4]: 39.7 nM | IC50 [2]: 21 nM | Kd [5]: 6.1 nM | koff [5]: 0.073 s⁻¹ | kon [5]: 1.2e+07 M⁻¹ s⁻¹ | Kd [6]: 6.7 nM | koff [6]: 0.062 s⁻¹ | kon [6]: 9.2e+06 M⁻¹ s⁻¹ | Kd [7]: 29 nM | koff [7]: 0.14 s⁻¹ | kon [7]: 4.8e+06 M⁻¹ s⁻¹

B4: VHH 22G11 (VHH)
VHH: EVQLVESGGGLVQAGGSLRLSCAVSGFTFDDYAIGWFRQAPGKEREGVSCISRSDGSPYYADSVKGRFTISSDNAKGTVYLQMSSLKPEDTAVYYCAASWSGAYYSGTYYCDRLYEYDAWGQGTQVTVSS
notes: Tested as periplasmic extract; also called 022G11; not shown: C-terminal c-myc tag and His6 tag
% inh [1]: 98%

B5: VHH 25F01 (VHH)
VHH: EVQLVESGGGLVQAGGSLRLSCAVSGLPFDDYVIGWFRQAPGKEREGVSCISSSDGSTYYADSVKGRFTISSDNAKNTVYLQMNSLKPEDTAAYYCAAGGPRINIATMTCSHDEYEYDYWGQGTQVTVSS
notes: also called 025F01; not shown: C-terminal c-myc tag and His6 tag
% inh [1]: 42% | IC50 [2]: 13.3 nM

B6: VHH 32H10 (VHH)
VHH: EVQLVESGGGLVQAGGSLRLSCAASGFDFEDYDMGWFRQAPGKEREGVSYISSSDGSTYYTDSVKGRFTISSDNAKNTVYLQMNSLIPEDTAVYYCAARPWTRRVYGSSWLARSLDEYEYDYWGQGTQVTVSS
notes: also called 032H10; not shown: C-terminal c-myc tag and His6 tag
IC50 [4]: 13 nM | % inh [1]: 58%

B7: VHH 13A02 (VHH)
VHH: EVQLVESGGGLVQAGGSLRLSCAASGGTFSSYSMGWFRQAPGKEREFIAAINWNGDSTYYEDSVKGRFTVSRDNAKNTVYLQMNSLKPEDTAVYYCAATGWGRAYEQAYEYDVWGQGTQVTVSS
notes: also called 013A02; not shown: C-terminal c-myc tag and His6 tag
IC50 [3]: 33.1 nM | IC50 [4]: 26.6 nM | % inh [1]: 97% | IC50 [2]: 6.1 nM | Kd [5]: 8.7 nM | koff [5]: 0.094 s⁻¹ | kon [5]: 1.1e+07 M⁻¹ s⁻¹ | Kd [6]: 9.9 nM | koff [6]: 0.091 s⁻¹ | kon [6]: 9.2e+06 M⁻¹ s⁻¹ | Kd [7]: 18 nM | koff [7]: 0.034 s⁻¹ | kon [7]: 1.9e+06 M⁻¹ s⁻¹

B8: VHH 00934 (VHH, not shown: small tags and cut ends)
VHH: EVQLVESGGGLVQPGGSLRLSCAASGITLDDYAIGWFRQAPGKEREGVSAIRESGGSTYYADSVKGRFTISSDNSKNTVYLQMNSLRPEDTAVYYCAAVPAGRLRYGEQWYPIYEYDAWGQGTLVTVSS
notes: Cycle 3 variant of 28D10 on the 00908 backbone
IC50 [8]: 0.071 nM

B9: VHH 00936 (VHH, not shown: small tags and cut ends)
VHH: B8 VHH with A24V, E53D, S54N
notes: as for B8
IC50 [8]: 0.06 nM

B10: VHH 00937 (VHH, not shown: small tags and cut ends)
VHH: B8 VHH with A24V
notes: as for B8
IC50 [8]: 0.085 nM

B11: VHH 24B05 (VHH)
VHH: EVQLVESGGGLVQPGGSLRLSCAASGFTLDYYAIGWFRQAPGKEWEGVSCISSSDGSTYYADSVKGRFTISRDNAKNTVYLQMNSLKPEDTAVYYCATDSIVCGSYYGMDYWGKGTQVTVSS
notes: also called 024B05; not shown: C-terminal c-myc tag and His6 tag
IC50 [3]: 2.1 nM | IC50 [4]: 1.1 nM | % inh [1]: 98% | IC50 [2]: 1.5 nM | Kd [5]: 0.59 nM | koff [5]: 0.0024 s⁻¹ | kon [5]: 4.1e+06 M⁻¹ s⁻¹ | Kd [6]: 0.96 nM | koff [6]: 0.0025 s⁻¹ | kon [6]: 2.6e+06 M⁻¹ s⁻¹ | Kd [7]: 1.7 nM | koff [7]: 0.0029 s⁻¹ | kon [7]: 1.7e+06 M⁻¹ s⁻¹

B12: VHH 8A11 (VHH)
VHH: EVQLVESGGGLVQAGGSLRLSCAASGRTFSSYAMGWFRQAPGKELEFVTAVSWSGGSTYYADSVKGRFTISRDSAKNTVYLQMNSLKPEDTAVYYCAAQSTIVEVTTLEAYDYWGQGTQVTVSS
notes: also called 008A11; not shown: C-terminal c-myc tag and His6 tag
% inh [1]: 13% | IC50 [2]: 442 nM

B13: VHH 00920 (VHH, not shown: small tags and cut ends)
VHH: EVQLVESGGGLVQPGGSLRLSCAASGFALDYYAIGWFRQAPGKEREGVSCISSSGGITYYADSVKGRFTISRDNSKNTVYLQMNSLRPEDTAVYYCATDSGGYIDYDCMGLGYDYWGQGTLVTVSS
IC50 [9]: 0.23 nM | IC50 (FLAG-tagged mouse Ang2): 0.15 nM

B14: VHH 00927 (VHH, not shown: small tags and cut ends)
VHH: B13 VHH with M109R
IC50 [9]: 0.33 nM | IC50 (FLAG-tagged mouse Ang2): 0.19 nM

B15: VHH 00926 (VHH, not shown: small tags and cut ends)
VHH: B13 VHH with M109Q
IC50 [9]: 0.29 nM | IC50 (FLAG-tagged mouse Ang2): 0.2 nM
